Measured values: article PMC4710668, “Bioactivation of food genotoxicants 5-hydroxymethylfurfural and furfuryl alcohol by sulfotransferases from human, mouse and rat: a comparative study” (Archives of Toxicology, 2014)

B1: hSULT1A3 (Homo sapiens) (protein)
chain: MELIQDTSRPPLEYVKGVPLIKYFAEALGPLQSFQARPDDLLINTYPKSGTTWVSQILDMIYQGGDLEKCNRAPIYVRVPFLEVNDPGEPSGLETLKDTPPPRLIKSHLPLALLPQTLLDQKVKVVYVARNPKDVAVSYYHFHRMEKAHPEPGTWDSFLEKFMAGEVSYGSWYQHVQEWWELSRTHPVLYLFYEDMKENPKREIQKILEFVGRSLPEETMDFMVQHTSFKEMKKNPMTNYTTVPQELMDHSISPFMRKGMAGDWKTTFTVAQNERFDADYAEKMAGCSLSFRSEL
notes: made in house; host or cells: Salmonella typhimurium TA1538 (cytosolic fraction, not purified)
B2: mSult1d1 (Mus musculus) (protein)
chain: MDNKLDVFRRELVDVEGIPLFWSIAEHWSQVESFEARPDDILISTYPKSGTTWVSEILDLIYNNGDAEKCKRDAIYKRVPFMELIIPGITNGVEMLNNMPSPRIVKTHLPVQLLPSSFWKNDCKIIYVARNAKDVVVSYYYFYQMAKIHPEPGTWEEFLEKFMAGQVSFGPWYDHVKSWWEKRKEYRILYLFYEDMKENPKCEIQKILKFLEKDIPEEILNKILYHSSFSVMKENPSANYTTMMKEEMDHSVSPFMRKGISGDWKNQFTVAQYEKFEEDYVKKMEDSTLKFRSEI
notes: made in house; host or cells: Salmonella typhimurium TA1538 (cytosolic fraction, enzyme not purified)
B3: mSult1a1 (Mus musculus) (protein)
chain: MEPLRKPLVPVKGIPLIKYFAETMEQLQNFTAWPDDVLISTYPKSGTNWMSEIMDMIYQGGKLDKCGRAPVYARIPFLEFSCPGVPPGLETLKETPAPRIIKTHLPLSLLPQSLLDQKIKVIYVARNAKDVVVSYYNFYKMAKLHPDPGTWESFLENFMDGKVSYGSWYQHVKEWWELRRTHPVLYLFYEDMKENPKREIKKILEFLGRSLPEETVDLIVHHTSFKKMKENPMANYTTIPTEVMDHTIYPFMRKGTIGDWKNTFTVAQSEHFDAHYAKLMTGCDFTFRCQI
notes: as for B2
B4: rSult1c1 (Rattus norvegicus) (protein)
chain: MSLEKMKDLHLGEQDLQPETREVNGILMSKLMSDNWDKIWNFQAKPDDLLIATYAKAGTTWTQEIVDMIQNDGDVQKCQRANTYDRHPFIEWTLPSPLNSGLDLANKMPSPRTLKTHLPVHMLPPSFWKENSKIIYVARNAKDCLVSYYYFSRMNKMLPDPGTLGEYIEQFKAGKVLWGSWYDHVKGWWDVKDQHRILYLFYEDMKEDPKREIKKIAKFLEKDISEEVLNKIIYHTSFDVMKENPMANYTTLPSSIMDHSISPFMRKGMPGDWKNYFTVAQSEDFDEDYRRKMAGSNITFRTEI
notes: as for B2
B5: hSULT1A2 (Homo sapiens) (protein)
chain: MELIQDISRPPLEYVKGVPLIKYFAEALGPLQSFQARPDDLLISTYPKSGTTWVSQILDMIYQGGDLEKCHRAPIFMRVPFLEFKVPGIPSGMETLKNTPAPRLLKTHLPLALLPQTLLDQKVKVVYVARNAKDVAVSYYHFYHMAKVYPHPGTWESFLEKFMAGEVSYGSWYQHVQEWWELSRTHPVLYLFYEDMKENPKREIQKILEFVGRSLPEETVDLMVEHTSFKEMKKNPMTNYTTVRREFMDHSISPFMRKGMAGDWKTTFTVAQNERFDADYAKKMAGCSLSFRSEL
notes: as for B1
B6: hSULT1A1 (Homo sapiens) (protein)
chain: MELIQDTSRPPLEYVKGVPLIKYFAEALGPLQSFQARPDDLLISTYPKSGTTWVSQILDMIYQGGDLEKCHRAPIFMRVPFLEFKAPGIPSGMETLKDTPAPRLLKTHLPLALLPQTLLDQKVKVVYVARNAKDVAVSYYHFYHMAKVHPEPGTWDSFLEKFMVGEVSYGSWYQHVQEWWELSRTHPVLYLFYEDMKENPKREIQKILEFVGRSLPEETVDFVVQHTSFKEMKKNPMTNYTTVPQEFMDHSISPFMRKGMAGDWKTTFTVAQNERFDADYAEKMAGCSLSFRSEL
notes: as for B1
B7: hSULT1C2 (Homo sapiens) (protein)
chain: MALHDMEDFTFDGTKRLSVNYVKGILQPTDTCDIWDKIWNFQAKPDDLLISTYPKAGTTWTQEIVELIQNEGDVEKSKRAPTHQRFPFLEMKIPSLGSGLEQAHAMPSPRILKTHLPFHLLPPSLLEKNCKIIYVARNPKDNMVSYYHFQRMNKALPAPGTWEEYFETFLAGKVCWGSWHEHVKGWWEAKDKHRILYLFYEDMKKNPKHEIQKLAEFIGKKLDDKVLDKIVHYTSFDVMKQNPMANYSSIPAEIMDHSISPFMRKGAVGDWKKHFTVAQNERFDEDYKKKMTDTRLTFHFQF
notes: as for B1
B8: rSult1a1 (Rattus norvegicus) (protein)
chain: MEFSRPPLVHVKGIPLIKYFAETIGPLQNFTAWPDDLLISTYPKSGTTWMSEILDMIYQGGKLEKCGRAPIYARVPFLEFKCPGVPSGLETLEETPAPRLLKTHLPLSLLPQSLLDQKVKVIYIARNAKDVVVSYYNFYNMAKLHPDPGTWDSFLENFMDGEVSYGSWYQHVKEWWELRHTHPVLYLFYEDIKENPKREIKKILEFLGRSLPEETVDSIVHHTSFKKMKENCMTNYTTIPTEIMDHNVSPFMRKGTTGDWKNTFTVAQNERFDAHYAKTMTDCDFKFRCEL
notes: as for B2

Legend:
Assay in all cases: HMF sulfoconjugation assay
Settings in all cases: other: catalytic efficiency of HMF sulfoconjugation; pH 7.4
[1] = substrate: O=Cc1ccc(CO)o1; assay type: biochemical, human
Method: Cytosolic fractions containing individual SULT forms were prepared from transgenic S. typhimurium TA1538. Table S1 in the Supplementary Material provides a summary of the thirty SULTs used in the current study together with references describing the cloning of the respective S. typhimurium TA1538 strains. The expressed SULT forms are denoted with the prefixes h, m and r for human, mouse and rat enzymes, respectively. Bacteria were grown in Luria Broth medium containing ampicillin (100 µg/ml) by stirring for 8 h at 200 revolutions/min at 37 °C. The bacterial suspensions were centrifuged at 5,000 g for 10 min. The sediments were washed twice with 25 ml of 10 mM potassium phosphate buffer (pH 7.4)/50 mM potassium chloride (KCP buffer) and centrifuged again. The pellets were taken up in 800 µl KCP buffer and sonicated thrice for 15 s with 30 s pauses in between. The soluble fraction was attained by centrifuging for 1 h at 100,000 g. The supernatants (in the following termed cytosolic preparations) were frozen at −80 °C. The protein concentrations were determined according to a bicinchoninic acid (BCA) assay protocol. The SULT concentrations in the cytosolic preparations were estimated after electrophoretic separation and immunodetection using inclusion bodies of different SULT forms as standards (Teubner et al. [2007]). The preparation of SULT inclusion bodies and the immunodetection of SULTs is described in the Supplementary Material, which also contains a representative immunoblot of different amounts of rSult1a1standard and a cytosolic preparation of S. typhimurium expressing rSult1a1 (Fig. S1).
(§1) The reactions were conducted in mixtures of 100 µl containing 25–200 µg protein, 50 mM potassium phosphate buffer (pH 7.4), 5 mM MgCl2, 50 µM PAPS and different concentrations of HMF at 37 °C. Preliminary experiments ensured that measurements were recorded under ‘linear’ conditions, i.e., doubling of protein concentration or incubation time was doubling the amount of sulfate ester formed. […]
SMF concentrations of the clear supernatants were analyzed by UPLC-MS/MS. The protocol was adapted from the quantification of SMF in plasma samples of HMF-treated mice (Monien et al. [2009]). In short, the supernatants were analyzed using a UPLC system (Waters) connected to a Quattro Premier XE tandem quadrupole mass spectrometer (Waters) using the negative electrospray ionization mode. […] The fragmentation reactions of SMF yielding two principal ions, the sulfate ion radical (m/z = 204.9 → 96.0) and the protonated sulfonate ion (m/z = 204.9 → 81.0) were monitored. […] SMF was quantified using an external calibration line that was linear in the concentration range of 1.0 nM (4 fmol/injection) to 2,500 (10 pmol/injection) SMF (r ^2 ≥ 0.99). […]

[2] = substrate: O=Cc1ccc(CO)o1; assay type: biochemical, mouse
Method: (§2) Cytosolic fractions containing individual SULT forms were prepared from transgenic S. typhimurium TA1538. Table S1 in the Supplementary Material provides a summary of the thirty SULTs used in the current study together with references describing the cloning of the respective S. typhimurium TA1538 strains. The expressed SULT forms are denoted with the prefixes h, m and r for human, mouse and rat enzymes, respectively. Bacteria were grown in Luria Broth medium containing ampicillin (100 µg/ml) by stirring for 8 h at 200 revolutions/min at 37 °C. The bacterial suspensions were centrifuged at 5,000 g for 10 min. […] The protein concentrations were determined according to a bicinchoninic acid (BCA) assay protocol. […]
as §1
(§3) SMF concentrations of the clear supernatants were analyzed by UPLC-MS/MS. The protocol was adapted from the quantification of SMF in plasma samples of HMF-treated mice (Monien et al. [2009]). […]

[3] = substrate: O=Cc1ccc(CO)o1; assay type: biochemical, rat
Method: as §2, §1, §3

Row | Protein | kcat/Km [1] [M⁻¹ s⁻¹] | also measured
1 | B1 | 0.26 | –
2 | B2 | – | kcat/Km [2]: 4.8 M⁻¹ s⁻¹
3 | B3 | – | kcat/Km [2]: 15.8 M⁻¹ s⁻¹
4 | B4 | – | kcat/Km [3]: 0.12 M⁻¹ s⁻¹
5 | B5 | 0.71 | –
6 | B6 | 13.7 | –
7 | B7 | 0.73 | –
8 | B8 | – | kcat/Km [3]: 5.3 M⁻¹ s⁻¹
